Experimental data published in the supplement of paper PMC10724198.
± gives the standard deviation of the averaged measurements.

Test system: Saccharomyces cerevisiae
Assay: protein stability index of tFT-peptide fusion (C-terminal peptide) (PSI (0-1 scale)); higher = more stable (slower turnover)
Conditions: genetic background: wild type; temperature: 30 C
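Further: PSI is a weighted mean of sequencing reads over stability bins, variants kept only with over 10 reads, mCherry proximal and sfGFP distal, peptide attached via GGGS linker.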

| Sequence | protein stability index |
| --- | --- |
| PRSPPCPLPPPL | 0.65 ± 0.11 |
| LPPPSFPSISLF | 0.675 ± 0.14 |
| MNVHGHERLRPS | 0.678 ± 0.066 |
| LFSSPPSLPPPL | 0.739 ± 0.036 |
| CESRSIVSFVLL | 0.73 ± 0.11 |
| GAYKVPSYGINY | 0.695 ± 0.021 |
| PYAPYRPQVDSS | 0.708 ± 0.018 |
| GRSLGTPRYHPG | 0.713 ± 0.016 |
| LPHSPSLPPAFP | 0.708 ± 0.032 |
| RFLCPSSFIELL | 0.794 ± 0.12 |
| YVRCSVKCHILT | 0.609 ± 0.029 |
| DRYSVGCGVSEG | 0.7038 ± 0.002 |
| HCLIPGEIHRIS | 0.6741 ± 0.0037 |
| VGVGAGQWVVWY | 0.682 ± 0.028 |
| CGFCVCWSGVAL | 0.72 ± 0.045 |
| VRRGGRARRRGS | 0.698 ± 0.016 |
| CRFLDVSSWILI | 0.707 ± 0.065 |
| DPAASNTTTRRL | 0.686 ± 0.064 |
| GGCSGGNGGCDG | 0.678 ± 0.028 |
| LRVRTLGLPLVY | 0.569 ± 0.026 |
| AAGAGAPRRPLL | 0.683 ± 0.02 |
| NRRGGTLLATLF | 0.659 ± 0.017 |
| IYSPLSPSTAPA | 0.664 ± 0.012 |
| TEKTHRTTIVNN | 0.7254 ± 0.0061 |
| RPGPGHYRSIIL | 0.669 ± 0.11 |
| TRRLEFPEPPMS | 0.708 ± 0.061 |

| Sequence | protein stability index |
| --- | --- |
| FSVLSPHPLHPL | 0.753 ± 0.093 |
| KTGEKIKKNNIK | 0.692 ± 0.059 |
| KRIGLGEERQKR | 0.57 ± 0.078 |
| FAVLGGGVGGGG | 0.683 ± 0.043 |
| SGFLLSPPRPSF | 0.693 ± 0.042 |
| PSPPLCPPRFSP | 0.652 ± 0.025 |
| QVISDEHLCRFV | 0.651 ± 0.083 |
| QRKKKDRTMKKR | 0.631 ± 0.026 |
| YRPPFPAALFSE | 0.6962 ± 0.0034 |
| LHFYASFPSPLV | 0.669 ± 0.044 |
| GLMITSARYVGF | 0.641 ± 0.012 |
| KNEKEKKTKMRN | 0.754 ± 0.14 |
| MVWCVSRGEGPV | 0.762 ± 0.037 |
| LERDRLINVLPI | 0.726 ± 0.042 |
| LGSRSGPLFPCV | 0.655 ± 0.015 |
| LLSSFIFSILFF | 0.496 ± 0.0085 |
| LWLCLERFPCSR | 0.74 ± 0.042 |
| AGICLRSFRCFW | 0.672 ± 0.0079 |
| GSPPSSLTADSA | 0.683 ± 0.017 |
| PPPPRDPLPLPR | 0.677 ± 0.018 |
| CGRGVWAVVGVP | 0.715 ± 0.028 |
| WLCGSIGHAMLG | 0.739 ± 0.062 |
| KVGLGGRLQSYP | 0.6338 ± 0.0054 |
| ALQLLNPSLLKY | 0.786 ± 0.06 |
| PPILRPAKSAQG | 0.705 ± 0.024 |
| GCIGGMAPWGGL | 0.664 ± 0.0097 |

| Sequence | protein stability index |
| --- | --- |
| HRKNKYKRKTTK | 0.676 ± 0.05 |
| SGVEGTRQGSVS | 0.711 ± 0.068 |
| PLPYPPTSPTPR | 0.678 ± 0.0078 |
| LPSPRRPPTPSA | 0.657 ± 0.015 |
| VVVSGGGAGFWL | 0.728 ± 0.019 |
| FCVFVGSSLVGF | 0.659 ± 0.019 |
| VLSLPLPSLSLN | 0.725 ± 0.18 |
| CLVSGGRVSRGA | 0.6578 ± 0.0019 |
| KKKKEKKETKKK | 0.67 ± 0.028 |
| GVLGRVRLGWVG | 0.671 ± 0.012 |
| SMCSVAGVWWLG | 0.728 ± 0.062 |
| EPPLPEPPLSRS | 0.705 ± 0.023 |
| LLPSAAKLTLLP | 0.77 ± 0.07 |
| HCSLRPRPNHAR | 0.746 ± 0.032 |
| VLFHWAGFFLFL | 0.525 ± 0.029 |
| LLFPFLSFLLPL | 0.66 ± 0.037 |
| PSLPFPPSPPPC | 0.7067 ± 0.0022 |
| RVEITGVAVTRC | 0.642 ± 0.0082 |
| LDEQIKIRIKEK | 0.721 ± 0.046 |
| LCGYAMSFRPLG | 0.73 ± 0.091 |
| GPLEGGDGRWVG | 0.6852 ± 0.0015 |
| PLNQSYFVFSGN | 0.724 ± 0.019 |
| QSPSHSYLCHLF | 0.583 ± 0.097 |
| GGYGRAGRDVGG | 0.655 ± 0.035 |
| KDIVSQEEHAPL | 0.678 ± 0.036 |
| SSIGPTECSYFS | 0.678 ± 0.088 |

| Sequence | protein stability index |
| --- | --- |
| GGRRRPVPQGPR | 0.649 ± 0.091 |
| SLCPRVCSERVP | 0.722 ± 0.031 |
| LVDHLEMSTTSL | 0.724 ± 0.017 |
| FLGGVGGLVLIG | 0.6672 ± 0.0047 |
| SLAPPVILPSHP | 0.659 ± 0.041 |
| VAVMPKPLGVVR | 0.552 ± 0.046 |
| QEDNAIAVGWSA | 0.673 ± 0.008 |
| CSVCPGYLFGCA | 0.601 ± 0.025 |
| TPHAPTATPRDN | 0.727 ± 0.076 |
| VVLWGAVSIVRT | 0.616 ± 0.028 |
| KQRTRKYLNSRN | 0.654 ± 0.12 |
| PFSGLPVRCELC | 0.672 ± 0.048 |
| FSFNGMTRNCLR | 0.715 ± 0.014 |
| GGFCRLRYLVCP | 0.544 ± 0.039 |
| GGVSRLVGRLGG | 0.7055 ± 0.0017 |
| GRGSGRCVVYWG | 0.651 ± 0.069 |
| NKFETCIANMYI | 0.718 ± 0.058 |
| ASFLRPQMSLPF | 0.618 ± 0.0095 |
| LLSFFLSPPSIL | 0.734 ± 0.02 |
| RRTRRATKAKKR | 0.682 ± 0.058 |
| CGSTLLPESYIQ | 0.645 ± 0.052 |
| WITAYFPLHSSE | 0.714 ± 0.036 |
| KKTIEQNNLTIV | 0.7091 ± 0.002 |
| IVLGPHNFLTIL | 0.676 ± 0.018 |
| PLPPPRPSPGLL | 0.67 ± 0.1 |
| YRARRRPPPSPP | 0.682 ± 0.045 |

| Sequence | protein stability index |
| --- | --- |
| TTSRTRVAHPPI | 0.622 ± 0.071 |
| CWSCLRGYRFQT | 0.664 ± 0.028 |
| NIKNQEVKTHDT | 0.6796 ± 0.0054 |
| EWPVGLLREGLG | 0.6177 ± 0.0016 |
| VFAVGRPGRGVV | 0.648 ± 0.014 |
| GGFTAPLVLSPR | 0.686 ± 0.071 |
| IKPKKKEKKQEN | 0.704 ± 0.046 |
| HPLLPRPVPLTD | 0.665 ± 0.059 |
| GVRRSRAARVRK | 0.777 ± 0.18 |
| YCPVFSLPPFFR | 0.664 ± 0.086 |
| ATIRNSMPYHFN | 0.646 ± 0.044 |
| VFSTFGSCHICC | 0.636 ± 0.033 |
| HEHFRDRAGPAS | 0.636 ± 0.017 |
| VIMGRGGGNVGG | 0.701 ± 0.053 |
| GEISLSGRYRAV | 0.691 ± 0.032 |
| EGDGLGGGGQGG | 0.685 ± 0.0069 |
| DGSIGASPGRGL | 0.695 ± 0.015 |
| PPRVVPDISTSL | 0.699 ± 0.039 |
| SPPLCAPPHPPA | 0.679 ± 0.04 |
| DIAYPRITDSRC | 0.714 ± 0.045 |
| KIKTKKGTKKRK | 0.677 ± 0.039 |
| PESTPRVHSNDY | 0.691 ± 0.027 |
| MTWQSASGNRVA | 0.699 ± 0.056 |
| VNCFVYGKCCSG | 0.648 ± 0.072 |
| SLPPPAAPLPFP | 0.7346 ± 0.00096 |
| GVVGVWRGAGWR | 0.717 ± 0.041 |

| Sequence | protein stability index |
| --- | --- |
| KLLRPMVLPQRT | 0.615 ± 0.02 |
| RRKTKTYRSWME | 0.649 ± 0.035 |
| PRGFVHLPPPYT | 0.756 ± 0.12 |
| PFSLPAFLLPTL | 0.712 ± 0.053 |
| LPSPSSSPPPFP | 0.7274 ± 0.0013 |
| CPPFLTPRLAPA | 0.778 ± 0.2 |
| PRGPPTPPLTSP | 0.669 ± 0.043 |
| VALHRIPVTVSR | 0.578 ± 0.026 |
| RLEERTNIKKIK | 0.699 ± 0.045 |
| APTPPPPLSPRS | 0.69 ± 0.034 |
| VFACDTRHWSFD | 0.796 ± 0.019 |
| PPPPPYPPCIPL | 0.695 ± 0.048 |
| SRFLTPLPLAMF | 0.592 ± 0.018 |
| APPPPPPAPQPP | 0.619 ± 0.067 |
| SFIFTLRRSRPR | 0.667 ± 0.012 |
| DVLLRGAVQPIC | 0.659 ± 0.0098 |
| PCPLPVPCCLRP | 0.636 ± 0.016 |
| SFWNLFAGWYVI | 0.685 ± 0.03 |
| RLPVRSGAMHGC | 0.665 ± 0.011 |
| TARRGAARSSQL | 0.695 ± 0.017 |
| WFLCCFGGVSLV | 0.619 ± 0.0064 |
| NTGEHVVPCKGT | 0.659 ± 0.0067 |
| LADSLILWRFPT | 0.722 ± 0.087 |
| MNPSADYSIGAR | 0.688 ± 0.062 |
| SPLPHPSPPPSP | 0.662 ± 0.016 |
| PPDTPRTQKADT | 0.755 ± 0.029 |

| Sequence | protein stability index |
| --- | --- |
| VLFGLSTSSLCL | 0.644 ± 0.075 |
| PPPPALLPPPPA | 0.781 ± 0.27 |
| MKRRSEGDLLQP | 0.64 ± 0.047 |
| WSSVLGYFSRKE | 0.702 ± 0.024 |
| GGGFVGGTVAAV | 0.725 ± 0.011 |
| PLPRPRHHEPNS | 0.75 ± 0.044 |
| GPGYVFVGSGGW | 0.692 ± 0.027 |
| GLAELLLTKPTV | 0.652 ± 0.021 |
| GVGGGGVGLWLG | 0.656 ± 0.025 |
| GWFTMLTGAFAE | 0.7249 ± 0.003 |
| PNHLDPPTLHVN | 0.714 ± 0.021 |
| LGRRGVVRVSPR | 0.687 ± 0.052 |
| SPRRFVVVSGQG | 0.643 ± 0.012 |
| LYGREPAGAEPT | 0.633 ± 0.022 |
| FGLCRSLESRQF | 0.6606 ± 0.0026 |
| FTLLLFVPSLGS | 0.618 ± 0.0082 |
| GSGKHVGYIRVK | 0.656 ± 0.0082 |
| INGTEYVVGRKA | 0.686 ± 0.0097 |
| QSCQSKGSEVGE | 0.696 ± 0.054 |
| WGVGWSGRVGGS | 0.647 ± 0.045 |
| QVKKKKQNDAKN | 0.646 ± 0.074 |
| PQTVAHPPPPPR | 0.688 ± 0.04 |
| PYPPRPATPRPP | 0.682 ± 0.018 |
| KEKSSKRSGKTE | 0.644 ± 0.15 |
| YVAGECVFVCWE | 0.657 ± 0.04 |
| RMEPPLCIISPK | 0.6605 ± 0.0065 |

| Sequence | protein stability index |
| --- | --- |
| PRPRLPVLPSPS | 0.641 ± 0.098 |
| VTFFAFPLFFGF | 0.602 ± 0.041 |
| REVGSTILAVVH | 0.645 ± 0.031 |
| PPRPRSARLFLR | 0.728 ± 0.05 |
| AIAGSLSYCWDD | 0.678 ± 0.022 |
| VGSCGAPRLPWP | 0.732 ± 0.038 |
| CLSPAPLPPFFY | 0.6724 ± 0.0018 |
| CVAAISGESLLR | 0.667 ± 0.021 |
| MFLPNPTLLTLN | 0.559 ± 0.022 |
| PSPSPPPCPYPP | 0.677 ± 0.054 |
| DAVRRNSAWFSF | 0.677 ± 0.025 |
| PSEFGAGYVMGG | 0.71 ± 0.017 |
| LSFTSVLGQIPV | 0.705 ± 0.039 |
| NVIGSGLFVGWD | 0.795 ± 0.087 |
| LSSPPSRPFAPS | 0.721 ± 0.089 |
| GRVPSPDIGLPA | 0.672 ± 0.022 |
| GEGGENRRNGTV | 0.7 ± 0.12 |
| GALSDSLRVYTP | 0.688 ± 0.041 |
| YMSHPHGPLCLS | 0.75 ± 0.21 |
| KRIIRSYHFLGC | 0.698 ± 0.047 |
